Data taken from patent publication EP4660205A1 (Beijing Wisdomab Biotechnology Co., Ltd, dated 2025).
Where two headings read alike, the source gives them in different places.

T1: hIL-1R3-His (extracellular domain of human IL-1R3 with C-terminal His tag) (human (homo sapiens), UniProt Q9NPH3 21-359)
T1 sequence: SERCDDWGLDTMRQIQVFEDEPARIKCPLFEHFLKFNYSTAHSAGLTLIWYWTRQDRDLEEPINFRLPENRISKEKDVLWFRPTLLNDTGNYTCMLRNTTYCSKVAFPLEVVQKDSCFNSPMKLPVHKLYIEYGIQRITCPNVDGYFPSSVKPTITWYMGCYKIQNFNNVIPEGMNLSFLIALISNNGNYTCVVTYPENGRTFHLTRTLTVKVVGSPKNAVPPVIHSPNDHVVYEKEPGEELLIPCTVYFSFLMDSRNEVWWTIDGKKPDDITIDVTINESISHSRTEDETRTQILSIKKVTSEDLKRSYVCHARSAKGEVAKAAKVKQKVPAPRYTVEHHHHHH

T2: human IL-1R3 on the cell surface (HaCAT cells, PBMC/NK cells, MRC-5 cells) (human, UniProt Q9NPH3 21-570)
T2 sequence (looked up): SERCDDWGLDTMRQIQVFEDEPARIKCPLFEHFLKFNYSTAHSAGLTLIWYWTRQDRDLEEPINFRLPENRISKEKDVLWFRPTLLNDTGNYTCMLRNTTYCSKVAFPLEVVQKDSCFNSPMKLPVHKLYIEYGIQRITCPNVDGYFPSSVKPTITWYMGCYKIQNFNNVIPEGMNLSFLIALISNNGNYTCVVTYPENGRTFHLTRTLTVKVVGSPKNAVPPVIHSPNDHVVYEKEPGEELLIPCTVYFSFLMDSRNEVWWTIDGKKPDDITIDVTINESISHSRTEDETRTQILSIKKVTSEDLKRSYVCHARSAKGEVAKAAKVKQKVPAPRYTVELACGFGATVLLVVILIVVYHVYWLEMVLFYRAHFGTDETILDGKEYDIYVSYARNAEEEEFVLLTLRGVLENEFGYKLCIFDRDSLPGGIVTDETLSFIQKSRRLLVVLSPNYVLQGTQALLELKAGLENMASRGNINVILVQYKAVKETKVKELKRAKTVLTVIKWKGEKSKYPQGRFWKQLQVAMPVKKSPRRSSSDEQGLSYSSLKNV

T3: hIL-36R-His (extracellular domain of human IL-36R with C-terminal His tag) (human (homo sapiens), UniProt Q9HB29 20-335)
T3 construct: also called human hIL-36R-His
T3 sequence: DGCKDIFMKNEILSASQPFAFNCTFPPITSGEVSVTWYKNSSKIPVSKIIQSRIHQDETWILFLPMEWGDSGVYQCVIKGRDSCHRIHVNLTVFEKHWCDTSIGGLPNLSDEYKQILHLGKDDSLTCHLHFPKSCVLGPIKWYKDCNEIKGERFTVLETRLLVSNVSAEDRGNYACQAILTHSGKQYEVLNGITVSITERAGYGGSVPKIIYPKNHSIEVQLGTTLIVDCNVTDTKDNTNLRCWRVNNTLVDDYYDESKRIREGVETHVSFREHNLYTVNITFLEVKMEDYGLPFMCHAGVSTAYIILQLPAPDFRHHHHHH

T4: human IL-36R on the cell surface (HEK-Blue IL-36 cells, HaCAT cells, human CD14+ monocytes) (human, UniProt Q9HB29 20-575)
T4 sequence (looked up): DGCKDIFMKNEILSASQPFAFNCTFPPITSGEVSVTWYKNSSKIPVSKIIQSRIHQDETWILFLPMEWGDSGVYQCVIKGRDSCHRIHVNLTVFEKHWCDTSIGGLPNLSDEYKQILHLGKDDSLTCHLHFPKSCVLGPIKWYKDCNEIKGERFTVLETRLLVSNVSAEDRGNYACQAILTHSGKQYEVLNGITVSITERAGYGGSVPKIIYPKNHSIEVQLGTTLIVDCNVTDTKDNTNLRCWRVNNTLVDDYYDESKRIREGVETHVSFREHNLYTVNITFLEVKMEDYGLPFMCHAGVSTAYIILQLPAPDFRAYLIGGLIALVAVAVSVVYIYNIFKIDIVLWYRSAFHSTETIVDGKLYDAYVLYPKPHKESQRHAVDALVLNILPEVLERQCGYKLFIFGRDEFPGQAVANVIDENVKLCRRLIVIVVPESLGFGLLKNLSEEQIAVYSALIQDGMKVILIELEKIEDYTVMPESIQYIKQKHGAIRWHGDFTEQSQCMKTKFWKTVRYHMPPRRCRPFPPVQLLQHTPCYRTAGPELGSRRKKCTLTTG


Tests used:
[1] = target: T1, hIL-1R3-His (extracellular domain of …); assay: SPR (Biacore T200), antibody captured by anti-human Fc, hIL-1R3-His as analyte, 1:1 model
[2] = target: T1, hIL-1R3-His (extracellular domain of …); assay: as above; remark: listed apart in the source
[3] = target: T1, hIL-1R3-His (extracellular domain of …); assay: as above; remark: listed apart in the source
[4] = target: T2, human IL-1R3 on the cell surface (HaCAT …); assay: cell-based or functional assay
[5] = target: T3, hIL-36R-His (extracellular domain of …); assay: SPR (Biacore T200), antibody captured by anti-human Fc, hIL-36R-His as analyte, 1:1 model
[6] = target: T4, human IL-36R on the cell surface …; assay: cell-based or functional assay
[7] = target: T4, human IL-36R on the cell surface …; assay: cell-based or functional assay; remark: listed apart in the source
[8] = target: T4, human IL-36R on the cell surface …; assay: cell-based or functional assay; remark: listed apart in the source
[9] = target: T3, hIL-36R-His (extracellular domain of …); assay: SPR (Biacore T200), antibody captured by anti-human Fc, hIL-36R-His as analyte, 1:1 model; remark: listed apart in the source
[10] = target: T3, hIL-36R-His (extracellular domain of …); assay: as above; remark: listed apart in the source
[11] = target: T4, human IL-36R on the cell surface …; assay: cell-based or functional assay; remark: listed apart in the source

| Binder | Kd [3] [nM] | koff [3] [s⁻¹] | kon [3] [M⁻¹ s⁻¹] | IC50 for inhibiting IL-36α from inducing hIL-8 secretion by HaCAT cells [6] [nM] | IC50 for inhibiting IL-36β from inducing hIL-8 secretion by HaCAT cells [6] [nM] | IC50 for inhibiting IL-36γ from inducing hIL-8 secretion by HaCAT cells [6] [nM] | IC50 for inhibiting IL-36α from inducing hIL-8 secretion by HaCAT cells [7] [nM] | IC50 for inhibiting IL-36β from inducing hIL-8 secretion by HaCAT cells [7] [nM] | IC50 for inhibiting IL-36γ from inducing hIL-8 secretion by HaCAT cells [7] [nM] | Kd [9] [nM] | koff [9] [s⁻¹] | kon [9] [M⁻¹ s⁻¹] | other results |
| --- | --- | --- | --- | --- | --- | --- | --- | --- | --- | --- | --- | --- | --- |
| R1B9VH-h1+R1B9VK-h1 (antibody, V domains shown, also called humanized IL-1R3 antibody; R1B9VH-hl+R1B9VK-h1) VH: EVQLVESGGGLVQPGGSLRLSCAASGFTFSSYAMSWVRQAPGKGLVWVAEISRGGSHTYYPDTVTGRFTISRDNAKNTLYLQMNSLRAEDTAVYYCARSYGNYPFDYWGQGTTVTVSS VL: EIVLTQSPATLSLSPGERATLSCSASSSVSYMYWYQQKPGQAPRLLIYDTSNLASGIPARFSGSGSGTDFTLTISSLEPEDFAVYYCQQWSSYPLTFGQGTKLEIK | 1.45 | 0.000153 | 106000 |  |  |  |  |  |  |  |  |  | Kd [1]: 1.45 nM; koff [1]: 0.000153 s⁻¹; kon [1]: 106000 M⁻¹ s⁻¹; Kd [2]: 1.12 nM; koff [2]: 0.000111 s⁻¹; kon [2]: 99200 M⁻¹ s⁻¹; IC50 for inhibiting IL-36α from inducing hIL-8 secretion by HaCAT cells [4]: 0.195 nM; IC50 for inhibiting IL-36β from inducing hIL-8 secretion by HaCAT cells [4]: 0.0961 nM; IC50 for inhibiting IL-36γ from inducing hIL-8 secretion by HaCAT cells [4]: 0.608 nM |
| Spesolimab (antibody, V domains shown, Made in house from the variable regions of US9023995B2 as a whole IgG1m3 subtype antibody (control)) VH: QVQLVQSGAEVKKPGASVKVSCKASGYSFTSSWIHWVKQAPGQGLEWMGEINPGNVRTNYNENFRNKVTMTVDTSISTAYMELSRLRSDDTAVYYCTVVFYGEPYFPYWGQGTLVTVSS VL: QIVLTQSPGTLSLSPGERATMTCTASSSVSSSYFHWYQQKPGQAPRLWIYRTSRLASGVPDRFSGSGSGTDFTLTISRLEPEDAATYYCHQFHRSPLTFGAGTKLEIK |  |  |  | 0.0939 | 0.114 | 0.682 | 0.0433 | 0.172 | 0.642 |  |  |  | Kd [5]: 2.56 nM; koff [5]: 7.39e-05 s⁻¹; kon [5]: 28800 M⁻¹ s⁻¹; IC50 for inhibiting IL-36γ-induced hIL-8 secretion by human monocytes [8]: 0.0288 nM |
| R72B7VH+L36E9VK (antibody, V domains shown, also called R72B7VH+L36E9VK monoclonal antibody) VH: QVQLVQSGAEVKKPGASVKVSCKASGYSFTSSWIHWVKQAPGQGLEWMGEINPGNVRSNYNENFRNKVTMTVDTSISTAYMELSRLRSDDTAVYYCTVINYGEPYFASWGQGTLVTVSS VL: EIVLTQSPGTLSLSPGERATLSCRASQSVIGSYLAWYQQKPGQAPRLLIYSASKLASGIPDRFSGSGSGTDFTLTISRLEPEDFAVYYCQQDTRYPITFGQGTKVEIK |  |  |  | 0.508 | 0.511 | 3.65 |  |  |  | 1.65 | 5.4e-05 | 32800 |  |
| R49E11VH-h3+L36E9VK (antibody, V domains shown) VH: QVQLVQSGAEVKKPGASVKVSCKASGYSFTSSWIHWVRQAPGQGLEWMGEINPGSGRSNYNENFQGRVTMTVDTSISTAYMELSRLRSDDTAVYYCTVVFYGEPYFPFWGQGTLVTVSS VL: EIVLTQSPGTLSLSPGERATLSCRASQSVIGSYLAWYQQKPGQAPRLLIYSASKLASGIPDRFSGSGSGTDFTLTISRLEPEDFAVYYCQQDTRYPITFGQGTKVEIK |  |  |  |  |  |  |  |  |  | 11.4 | 9.94e-05 | 8690 |  |
| Crossmab bispecific antibody (R1B9VH-h1+R1B9VK-h1-Fab-cross+R49E11VH-h3+L26B11VK-Fab) (bispecific antibody, human IgG1, kappa, also called IL-36R×IL-1R3 Crossmab bispecific antibody) heavy 1: QVQLVQSGAEVKKPGASVKVSCKASGYSFTSSWIHWVRQAPGQGLEWMGEINPGSGRSNYNENFQGRVTMTVDTSISTAYMELSRLRSDDTAVYYCTVVFYGEPYFPFWGQGTLVTVSSASTKGPSVFPLAPSSKSTSEGTAALGCLVKDYFPEPVTVSWNSGALTSGVHTFPAVLQSSGLYSLSSVVTVPSSSLGTQTYICNVDHKPSNTKVDKTVEPKSCDKTHTCPPCPAPEFEGGPSVFLFPPKPKDTLMISRTPEVTCVVVDVSQEDPEVQFNWYVDGVEVHNAKTKPREEQYNSTYRVVSVLTVLHQDWLNGKEYKCKVSNKALPASIEKTISKAKGQPREPQVCTLPPSQEEMTKNQVSLSCAVKGFYPSDIAVEWESNGQPENNYKTTPPVLDSDGSFFLVSKLTVDKSRWQEGNVFSCSVMHEALHNHYTQKSLSLSPGK light 1: EIVLTQSPGTLSLSPGERATLSCRASQSVIYSYLAWYQQKPGQAPRLLIYSASKRASGIPDRFSGSGSGTDFTLTISRLEPEDFAVYYCQQHAGIPVTFGQGTKVEIKRTVAAPSVFIFPPSDEQLKSGTASVVCLLNNFYPREAKVQWKVDNALQSGNSQESVTEQDSKDSTYSLSSTLTLSKADYEKHKVYACEVTHQGLSSPVTKSFNRGEC heavy 2: EVQLVESGGGLVQPGGSLRLSCAASGFTFSSYAMSWVRQAPGKGLVWVAEISRGGSHTYYPDTVTGRFTISRDNAKNTLYLQMNSLRAEDTAVYYCARSYGNYPFDYWGQGTTVTVSSASVAAPSVFIFPPSDEQLKSGTASVVCLLNNFYPREAKVQWKVDNALQSGNSQESVTEQDSKDSTYSLSSTLTLSKADYEKHKVYACEVTHQGLSSPVTKSFNRGECDKTHTCPPCPAPEFEGGPSVFLFPPKPKDTLMISRTPEVTCVVVDVSHEDPEVKFNWYVDGVEVHNAKTKPREEQYNSTYRVVSVLTVLHQDWLNGKEYKCKVSNKALPASIEKTISKAKGQPREPQVYTLPPCREEMTKNQVSLWCLVKGFYPSDIAVEWESNGQPENNYKTTPPVLDSDGSFFLYSKLTVDKSRWQQGNVFSCSVMHEALHNHYTQKSLSLSPGK light 2: EIVLTQSPATLSLSPGERATLSCSASSSVSYMYWYQQKPGQAPRLLIYDTSNLASGIPARFSGSGSGTDFTLTISSLEPEDFAVYYCQQWSSYPLTFGQGTKLEIKSSASTKGPSVFPLAPSSKSTSGGTAALGCLVKDYFPEPVTVSWNSGALTSGVHTFPAVLQSSGLYSLSSVVTVPSSSLGTQTYICNVNHKPSNTKVDKRVEPKSC | 0.761 | 0.000155 | 203000 |  |  |  | 0.0183 | 0.0211 | 0.0184 |  |  |  | Kd [10]: 0.669 nM; koff [10]: 4.37e-05 s⁻¹; kon [10]: 65400 M⁻¹ s⁻¹; fold increase of activity by IC50 against R49E11VH-h3+L26B11VK, IL-36α, HaCAT hIL-8 secretion [11]: ~3 fold; fold increase of activity by IC50 against R49E11VH-h3+L26B11VK, IL-36β, HaCAT hIL-8 secretion [11]: ~13 fold; fold increase of activity by IC50 against R49E11VH-h3+L26B11VK, IL-36γ, HaCAT hIL-8 secretion [11]: ~103 fold |
